Test results published in PMC3276087 (Journal of Experimental Botany, 2011).

Molecular target: bovine testes calmodulin (bovine, UniProt P62157 1-149)
Test: SPR

B1: His-tagged ACA8 N-terminus, wild type (6His-1M-I116) (domain or fragment)
chain: MTSLLKSSPGRRRGGDVESGKSEHADSDSDTFYIPSKNASIERLQQWRKAALVLNASRRFRYTLDLKKEQETREMRQKIRSHAHALLAANRFMDMGRESGVEKTTGPATPAGDFGI
Kd: 19.3 nM
koff: 0.00244 s⁻¹
kon: 127000 M⁻¹ s⁻¹

B2: His-tagged ACA8 N-terminus S27D (6His-1M-I116) (domain or fragment)
chain: MTSLLKSSPGRRRGGDVESGKSEHADDDSDTFYIPSKNASIERLQQWRKAALVLNASRRFRYTLDLKKEQETREMRQKIRSHAHALLAANRFMDMGRESGVEKTTGPATPAGDFGI
Kd: 26.5 nM
koff: 0.0052 s⁻¹
kon: 196000 M⁻¹ s⁻¹

B3: His-tagged ACA8 N-terminus S29D (6His-1M-I116) (domain or fragment)
chain: MTSLLKSSPGRRRGGDVESGKSEHADSDDDTFYIPSKNASIERLQQWRKAALVLNASRRFRYTLDLKKEQETREMRQKIRSHAHALLAANRFMDMGRESGVEKTTGPATPAGDFGI
Kd: 22.3 nM
koff: 0.00382 s⁻¹
kon: 171000 M⁻¹ s⁻¹

B4: His-tagged ACA8 N-terminus S19D (6His-1M-I116) (domain or fragment)
chain: MTSLLKSSPGRRRGGDVEDGKSEHADSDSDTFYIPSKNASIERLQQWRKAALVLNASRRFRYTLDLKKEQETREMRQKIRSHAHALLAANRFMDMGRESGVEKTTGPATPAGDFGI
Kd: 14.5 nM
koff: 0.00325 s⁻¹
kon: 224000 M⁻¹ s⁻¹

B5: His-tagged ACA8 N-terminus S99D (6His-1M-I116) (domain or fragment)
chain: MTSLLKSSPGRRRGGDVESGKSEHADSDSDTFYIPSKNASIERLQQWRKAALVLNASRRFRYTLDLKKEQETREMRQKIRSHAHALLAANRFMDMGREDGVEKTTGPATPAGDFGI
Kd: 11.3 nM
koff: 0.00137 s⁻¹
kon: 121000 M⁻¹ s⁻¹

B6: His-tagged ACA8 N-terminus S22D (6His-1M-I116) (domain or fragment)
chain: MTSLLKSSPGRRRGGDVESGKDEHADSDSDTFYIPSKNASIERLQQWRKAALVLNASRRFRYTLDLKKEQETREMRQKIRSHAHALLAANRFMDMGRESGVEKTTGPATPAGDFGI
Kd: 23.9 nM
koff: 0.00139 s⁻¹
kon: 58000 M⁻¹ s⁻¹

B7: His-tagged ACA8 N-terminus S57D (6His-1M-I116) (domain or fragment)
chain: MTSLLKSSPGRRRGGDVESGKSEHADSDSDTFYIPSKNASIERLQQWRKAALVLNADRRFRYTLDLKKEQETREMRQKIRSHAHALLAANRFMDMGRESGVEKTTGPATPAGDFGI
Kd: 165 nM
koff: 0.0255 s⁻¹
kon: 154000 M⁻¹ s⁻¹
